T1: Chymase, from human skin (human, UniProt P23946 22-247)
T1 construct: purified natural enzyme, bought
T1 sequence (looked up): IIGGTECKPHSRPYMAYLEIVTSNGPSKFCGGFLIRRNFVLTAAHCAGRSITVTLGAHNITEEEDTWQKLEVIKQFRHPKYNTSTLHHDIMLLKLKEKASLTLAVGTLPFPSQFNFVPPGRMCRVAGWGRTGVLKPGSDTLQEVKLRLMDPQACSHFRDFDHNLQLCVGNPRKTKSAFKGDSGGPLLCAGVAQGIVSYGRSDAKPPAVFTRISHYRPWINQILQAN

B1: Example 137 (peptide)
peptide: XCTASIPPQCF
HELM: PEPTIDE1{[Nle].C.T.A.S.I.P.P.Q.C.F.[dP].P}$PEPTIDE1,PEPTIDE1,2:R3-10:R3|PEPTIDE1,PEPTIDE1,1:R1-13:R2$$$V2.0
SMILES: CCCC[C@@H]1NC(=O)[C@@H]2CCCN2C(=O)[C@H]2CCCN2C(=O)[C@H](Cc2ccccc2)NC(=O)[C@@H]2CSSC[C@H](NC1=O)C(=O)N[C@@H]([C@@H](C)O)C(=O)N[C@@H](C)C(=O)N[C@@H](CO)C(=O)N[C@@H]([C@@H](C)CC)C(=O)N1CCC[C@H]1C(=O)N1CCC[C@H]1C(=O)N[C@@H](CCC(N)=O)C(=O)N2
notes: also called Ex. 137
B2: Example 102 (peptide)
peptide: XCTASIPPQCY
HELM: PEPTIDE1{[CCCCCCCC[C@H](N[*:1])C(=O)[*:2]].C.T.A.S.I.P.P.Q.C.Y.[dP].P}$PEPTIDE1,PEPTIDE1,2:R3-10:R3|PEPTIDE1,PEPTIDE1,1:R1-13:R2$$$V2.0
SMILES: CCCCCCCC[C@@H]1NC(=O)[C@@H]2CCCN2C(=O)[C@H]2CCCN2C(=O)[C@H](Cc2ccc(O)cc2)NC(=O)[C@@H]2CSSC[C@H](NC1=O)C(=O)N[C@@H]([C@@H](C)O)C(=O)N[C@@H](C)C(=O)N[C@@H](CO)C(=O)N[C@@H]([C@@H](C)CC)C(=O)N1CCC[C@H]1C(=O)N1CCC[C@H]1C(=O)N[C@@H](CCC(N)=O)C(=O)N2
B3: Example 122 (peptide)
peptide: XCTASIPPQCY
HELM: PEPTIDE1{[Nle].C.T.A.S.I.P.P.Q.C.Y.[dP].F}$PEPTIDE1,PEPTIDE1,2:R3-10:R3|PEPTIDE1,PEPTIDE1,1:R1-13:R2$$$V2.0
SMILES: CCCC[C@@H]1NC(=O)[C@H](Cc2ccccc2)NC(=O)[C@H]2CCCN2C(=O)[C@H](Cc2ccc(O)cc2)NC(=O)[C@@H]2CSSC[C@H](NC1=O)C(=O)N[C@@H]([C@@H](C)O)C(=O)N[C@@H](C)C(=O)N[C@@H](CO)C(=O)N[C@@H]([C@@H](C)CC)C(=O)N1CCC[C@H]1C(=O)N1CCC[C@H]1C(=O)N[C@@H](CCC(N)=O)C(=O)N2
B4: Example 125 (peptide)
peptide: XCTASIPPQCY
HELM: PEPTIDE1{[Nle].C.T.A.S.I.P.P.Q.C.Y.[dP].V}$PEPTIDE1,PEPTIDE1,2:R3-10:R3|PEPTIDE1,PEPTIDE1,1:R1-13:R2$$$V2.0
SMILES: CCCC[C@@H]1NC(=O)[C@H](C(C)C)NC(=O)[C@H]2CCCN2C(=O)[C@H](Cc2ccc(O)cc2)NC(=O)[C@@H]2CSSC[C@H](NC1=O)C(=O)N[C@@H]([C@@H](C)O)C(=O)N[C@@H](C)C(=O)N[C@@H](CO)C(=O)N[C@@H]([C@@H](C)CC)C(=O)N1CCC[C@H]1C(=O)N1CCC[C@H]1C(=O)N[C@@H](CCC(N)=O)C(=O)N2
B5: Example 85 (peptide)
peptide: XCTASXPPQCY
HELM: PEPTIDE1{[Nle].C.T.A.S.[CC(C)(C)C[C@H](N[*:1])C(=O)[*:2]].P.P.Q.C.Y.[dP].P}$PEPTIDE1,PEPTIDE1,2:R3-10:R3|PEPTIDE1,PEPTIDE1,1:R1-13:R2$$$V2.0
SMILES: CCCC[C@@H]1NC(=O)[C@@H]2CCCN2C(=O)[C@H]2CCCN2C(=O)[C@H](Cc2ccc(O)cc2)NC(=O)[C@@H]2CSSC[C@H](NC1=O)C(=O)N[C@@H]([C@@H](C)O)C(=O)N[C@@H](C)C(=O)N[C@@H](CO)C(=O)N[C@@H](CC(C)(C)C)C(=O)N1CCC[C@H]1C(=O)N1CCC[C@H]1C(=O)N[C@@H](CCC(N)=O)C(=O)N2
notes: also called Ex. 85
B6: Example 144 (peptide)
peptide: XCTASIPPQCX
HELM: PEPTIDE1{[Nle].C.T.A.S.I.P.P.Q.C.[O=C([C@H](Cc1ccccc1Cl)N[*:1])[*:2]].[dP].P}$PEPTIDE1,PEPTIDE1,2:R3-10:R3|PEPTIDE1,PEPTIDE1,1:R1-13:R2$$$V2.0
SMILES: CCCC[C@@H]1NC(=O)[C@@H]2CCCN2C(=O)[C@H]2CCCN2C(=O)[C@H](Cc2ccccc2Cl)NC(=O)[C@@H]2CSSC[C@H](NC1=O)C(=O)N[C@@H]([C@@H](C)O)C(=O)N[C@@H](C)C(=O)N[C@@H](CO)C(=O)N[C@@H]([C@@H](C)CC)C(=O)N1CCC[C@H]1C(=O)N1CCC[C@H]1C(=O)N[C@@H](CCC(N)=O)C(=O)N2
B7: Example 168 (peptide)
peptide: XCTASIPPQCY
HELM: PEPTIDE1{[Nle].C.T.A.S.I.P.P.Q.C.Y.[dP].D}$PEPTIDE1,PEPTIDE1,2:R3-10:R3|PEPTIDE1,PEPTIDE1,1:R1-13:R2$$$V2.0
SMILES: CCCC[C@@H]1NC(=O)[C@H](CC(=O)O)NC(=O)[C@H]2CCCN2C(=O)[C@H](Cc2ccc(O)cc2)NC(=O)[C@@H]2CSSC[C@H](NC1=O)C(=O)N[C@@H]([C@@H](C)O)C(=O)N[C@@H](C)C(=O)N[C@@H](CO)C(=O)N[C@@H]([C@@H](C)CC)C(=O)N1CCC[C@H]1C(=O)N1CCC[C@H]1C(=O)N[C@@H](CCC(N)=O)C(=O)N2
notes: also called Ex. 168
B8: Example 179 (peptide)
peptide: XCTASIPPQCY
HELM: PEPTIDE1{[Nle].C.T.A.S.I.P.P.Q.C.Y.[dP].P}$PEPTIDE1,PEPTIDE1,2:R3-10:R3|PEPTIDE1,PEPTIDE1,1:R1-13:R2$$$V2.0
SMILES: CCCC[C@@H]1NC(=O)[C@@H]2CCCN2C(=O)[C@H]2CCCN2C(=O)[C@H](Cc2ccc(O)cc2)NC(=O)[C@@H]2CSSC[C@H](NC1=O)C(=O)N[C@@H]([C@@H](C)O)C(=O)N[C@@H](C)C(=O)N[C@@H](CO)C(=O)N[C@@H]([C@@H](C)CC)C(=O)N1CCC[C@H]1C(=O)N1CCC[C@H]1C(=O)N[C@@H](CCC(N)=O)C(=O)N2
B9: Example 95 (peptide)
peptide: XCTASIPPQCX
HELM: PEPTIDE1{[Nle].C.T.A.S.I.P.P.Q.C.[O=C([C@H](Cc1ccc2ccccc2c1)N[*:1])[*:2]].[dP].P}$PEPTIDE1,PEPTIDE1,2:R3-10:R3|PEPTIDE1,PEPTIDE1,1:R1-13:R2$$$V2.0
SMILES: CCCC[C@@H]1NC(=O)[C@@H]2CCCN2C(=O)[C@H]2CCCN2C(=O)[C@H](Cc2ccc3ccccc3c2)NC(=O)[C@@H]2CSSC[C@H](NC1=O)C(=O)N[C@@H]([C@@H](C)O)C(=O)N[C@@H](C)C(=O)N[C@@H](CO)C(=O)N[C@@H]([C@@H](C)CC)C(=O)N1CCC[C@H]1C(=O)N1CCC[C@H]1C(=O)N[C@@H](CCC(N)=O)C(=O)N2
notes: also called Ex. 95
B10: Example 97 (peptide)
peptide: XCTASIPPQCX
HELM: PEPTIDE1{[Nle].C.T.A.S.I.P.P.Q.C.[Cha].[dP].P}$PEPTIDE1,PEPTIDE1,2:R3-10:R3|PEPTIDE1,PEPTIDE1,1:R1-13:R2$$$V2.0
SMILES: CCCC[C@@H]1NC(=O)[C@@H]2CCCN2C(=O)[C@H]2CCCN2C(=O)[C@H](CC2CCCCC2)NC(=O)[C@@H]2CSSC[C@H](NC1=O)C(=O)N[C@@H]([C@@H](C)O)C(=O)N[C@@H](C)C(=O)N[C@@H](CO)C(=O)N[C@@H]([C@@H](C)CC)C(=O)N1CCC[C@H]1C(=O)N1CCC[C@H]1C(=O)N[C@@H](CCC(N)=O)C(=O)N2
notes: also called Ex. 97
B11: Example 98 (peptide)
peptide: XCTASIPPQCX
HELM: PEPTIDE1{[Nle].C.T.A.S.I.P.P.Q.C.[Phg].[dP].P}$PEPTIDE1,PEPTIDE1,2:R3-10:R3|PEPTIDE1,PEPTIDE1,1:R1-13:R2$$$V2.0
SMILES: CCCC[C@@H]1NC(=O)[C@@H]2CCCN2C(=O)[C@H]2CCCN2C(=O)[C@H](c2ccccc2)NC(=O)[C@@H]2CSSC[C@H](NC1=O)C(=O)N[C@@H]([C@@H](C)O)C(=O)N[C@@H](C)C(=O)N[C@@H](CO)C(=O)N[C@@H]([C@@H](C)CC)C(=O)N1CCC[C@H]1C(=O)N1CCC[C@H]1C(=O)N[C@@H](CCC(N)=O)C(=O)N2
notes: also called Ex. 98

Columns and labels:
Assay in all cases: enzyme inhibition, pNA substrate
[1] = molecular target: T2, Chymotrypsin, from human pancreas (human, UniProt P17538 19-263)
T2 construct: purified natural enzyme, bought

[2] = molecular target: Thrombin, from Human Plasma, high activity (human, UniProt P00734 328-622)
[3] = molecular target: T1, Chymase, from human skin
[4] = molecular target: T3, Trypsin, Iodination grade, from human pancreas (human, UniProt P07477 24-247)
T3 construct: purified natural enzyme, bought

[5] = molecular target: T4, Coagulation Factor Xa, from uman plasma (human, UniProt P00742 41-179; P00742 235-488, limits assumed)
T4 construct: purified natural enzyme, bought; also called FXa

[6] = molecular target: T5, Tryptase, from human lung (human, UniProt Q15661 31-275, limits assumed)
T5 construct: purified natural enzyme, bought

[7] = molecular target: T6, Urokinase from human urine (human, UniProt P00749 21-431, limits assumed)
T6 construct: purified natural enzyme, bought

T2 sequence (P17538 19-263): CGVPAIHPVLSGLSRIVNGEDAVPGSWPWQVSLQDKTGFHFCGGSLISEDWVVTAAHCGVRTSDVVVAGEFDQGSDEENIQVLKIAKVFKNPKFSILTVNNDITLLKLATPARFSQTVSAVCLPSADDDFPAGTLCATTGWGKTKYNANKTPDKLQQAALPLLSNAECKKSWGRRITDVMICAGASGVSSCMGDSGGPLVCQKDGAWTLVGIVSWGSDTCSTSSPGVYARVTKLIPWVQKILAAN
T5 sequence (Q15661 31-275 limits assumed): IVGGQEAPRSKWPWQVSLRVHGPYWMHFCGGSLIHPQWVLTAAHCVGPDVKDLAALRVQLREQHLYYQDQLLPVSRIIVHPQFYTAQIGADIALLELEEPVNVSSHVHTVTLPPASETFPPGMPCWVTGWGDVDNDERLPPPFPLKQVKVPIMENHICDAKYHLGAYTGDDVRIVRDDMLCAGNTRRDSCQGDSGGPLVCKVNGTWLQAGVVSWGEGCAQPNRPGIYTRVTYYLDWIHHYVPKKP
T4 sequence (P00742 41-179 limits assumed, chain 1 of 2): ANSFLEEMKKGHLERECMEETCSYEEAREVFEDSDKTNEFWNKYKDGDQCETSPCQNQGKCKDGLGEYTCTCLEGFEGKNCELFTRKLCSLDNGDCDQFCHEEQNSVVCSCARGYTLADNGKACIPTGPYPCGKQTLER
T4 sequence (P00742 235-488 limits assumed, chain 2 of 2): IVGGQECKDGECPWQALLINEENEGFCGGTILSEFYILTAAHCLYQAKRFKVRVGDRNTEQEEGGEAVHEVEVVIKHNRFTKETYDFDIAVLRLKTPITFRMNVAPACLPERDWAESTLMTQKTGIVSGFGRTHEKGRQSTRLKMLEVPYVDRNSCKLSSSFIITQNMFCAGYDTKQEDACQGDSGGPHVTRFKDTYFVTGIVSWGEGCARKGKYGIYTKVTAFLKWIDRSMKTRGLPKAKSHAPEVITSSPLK

| Binder | % inhibition at 100 µM [1] [%] | % inhibition at 100 µM [2] [%] | % inhibition at 100 µM [3] [%] | % inhibition at 100 µM [4] [%] | % inhibition at 100 µM [5] [%] | % inhibition at 100 µM [6] [%] | % inhibition at 100 µM [7] [%] |
| --- | --- | --- | --- | --- | --- | --- | --- |
| B1 | 68.7 | 0 | 0 | – | – | – | – |
| B2 | – | – | 0 | 0 | 0 | 0 | – |
| B3 | – | 0 | – | 19 | 19.6 | – | 11.1 |
| B4 | – | 0 | – | 28.3 | 0 | – | – |
| B5 | – | 12.6 | – | 0 | 25.6 | – | – |
| B6 | 80.6 | – | 0 | – | 0 | 0 | – |
| B7 | 72.9 | 0 | – | 12.8 | – | – | – |
| B8 | 76 | – | – | – | – | 0 | – |
| B9 | – | 0 | 0 | – | 11.3 | 0 | 10.3 |
| B10 | – | 11.6 | 0 | – | – | 0 | 11.9 |
| B11 | – | – | 0 | 0 | 0 | 0 | 0 |

Source: patent publication US20140213531A1 (POLYPHOR, published 2014)
